The target of one test is H3K4me3 (1-21). The test can be described thus: ITC; iTC200, 25 °C, stirring 800 rpm; sample 150–260 μM, titrant 1.5–4 mM; one-site binding model; the figure legends on these data give mean ± S.D. (n = 4). For orientation: Isothermal titration calorimetry measures the heat released or taken up as one component is titrated into another.
The next test concerns the target H3K4me1 (1-21). The test is described as above.
Another test has as its target H3T6C (1-21). The description is as above.
The target in a further test is H3K14ac T6C. The description is as above.
The target in a further test is H3K4me2 (1-21). Described as above.
The target in another test is BAZ2B PHD domain (human) (UniProt Q9UIF8). As to the kind of experiment: ITC; iTC200, 25 °C; 150–260 μM sample, 1.5–4 mM titrant; one-site binding model; n = 4.
For test [1], the target named is BAZ2B PHD–BRD (human) (UniProt Q9UIF8). Described as above.
A further test has as its target H3K4me2K14ac. The test can be described thus: ITC; iTC200, 25 °C, stirring 800 rpm; sample 150–260 μM, titrant 1.5–4 mM; one-site binding model; the figure legends on these data give mean ± S.D. (n = 4).
The target in the next test is H3K4me1K14ac. The test is described as above.
Another test deals with H3K4me3K14ac. The description is as above.
Test [2] deals with BAZ2B PHD–BRD (human) (UniProt Q9UIF8). As to the kind of experiment: NMR titration; H3K14ac titrated into 15N-labelled PHD–BRD at peptide/protein ratios 0.5, 1, 1.5, 2 and 4; Kd estimated apart from BRD and from PHD residues.

Some results are limits rather than exact numbers.

H3T6C (1-21), sequence (peptide, as listed by the source T6C (stands in the printed letters)): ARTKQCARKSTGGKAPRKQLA
BAZ2B PHD–BRD (human), sequence (Q9UIF8 whole entry): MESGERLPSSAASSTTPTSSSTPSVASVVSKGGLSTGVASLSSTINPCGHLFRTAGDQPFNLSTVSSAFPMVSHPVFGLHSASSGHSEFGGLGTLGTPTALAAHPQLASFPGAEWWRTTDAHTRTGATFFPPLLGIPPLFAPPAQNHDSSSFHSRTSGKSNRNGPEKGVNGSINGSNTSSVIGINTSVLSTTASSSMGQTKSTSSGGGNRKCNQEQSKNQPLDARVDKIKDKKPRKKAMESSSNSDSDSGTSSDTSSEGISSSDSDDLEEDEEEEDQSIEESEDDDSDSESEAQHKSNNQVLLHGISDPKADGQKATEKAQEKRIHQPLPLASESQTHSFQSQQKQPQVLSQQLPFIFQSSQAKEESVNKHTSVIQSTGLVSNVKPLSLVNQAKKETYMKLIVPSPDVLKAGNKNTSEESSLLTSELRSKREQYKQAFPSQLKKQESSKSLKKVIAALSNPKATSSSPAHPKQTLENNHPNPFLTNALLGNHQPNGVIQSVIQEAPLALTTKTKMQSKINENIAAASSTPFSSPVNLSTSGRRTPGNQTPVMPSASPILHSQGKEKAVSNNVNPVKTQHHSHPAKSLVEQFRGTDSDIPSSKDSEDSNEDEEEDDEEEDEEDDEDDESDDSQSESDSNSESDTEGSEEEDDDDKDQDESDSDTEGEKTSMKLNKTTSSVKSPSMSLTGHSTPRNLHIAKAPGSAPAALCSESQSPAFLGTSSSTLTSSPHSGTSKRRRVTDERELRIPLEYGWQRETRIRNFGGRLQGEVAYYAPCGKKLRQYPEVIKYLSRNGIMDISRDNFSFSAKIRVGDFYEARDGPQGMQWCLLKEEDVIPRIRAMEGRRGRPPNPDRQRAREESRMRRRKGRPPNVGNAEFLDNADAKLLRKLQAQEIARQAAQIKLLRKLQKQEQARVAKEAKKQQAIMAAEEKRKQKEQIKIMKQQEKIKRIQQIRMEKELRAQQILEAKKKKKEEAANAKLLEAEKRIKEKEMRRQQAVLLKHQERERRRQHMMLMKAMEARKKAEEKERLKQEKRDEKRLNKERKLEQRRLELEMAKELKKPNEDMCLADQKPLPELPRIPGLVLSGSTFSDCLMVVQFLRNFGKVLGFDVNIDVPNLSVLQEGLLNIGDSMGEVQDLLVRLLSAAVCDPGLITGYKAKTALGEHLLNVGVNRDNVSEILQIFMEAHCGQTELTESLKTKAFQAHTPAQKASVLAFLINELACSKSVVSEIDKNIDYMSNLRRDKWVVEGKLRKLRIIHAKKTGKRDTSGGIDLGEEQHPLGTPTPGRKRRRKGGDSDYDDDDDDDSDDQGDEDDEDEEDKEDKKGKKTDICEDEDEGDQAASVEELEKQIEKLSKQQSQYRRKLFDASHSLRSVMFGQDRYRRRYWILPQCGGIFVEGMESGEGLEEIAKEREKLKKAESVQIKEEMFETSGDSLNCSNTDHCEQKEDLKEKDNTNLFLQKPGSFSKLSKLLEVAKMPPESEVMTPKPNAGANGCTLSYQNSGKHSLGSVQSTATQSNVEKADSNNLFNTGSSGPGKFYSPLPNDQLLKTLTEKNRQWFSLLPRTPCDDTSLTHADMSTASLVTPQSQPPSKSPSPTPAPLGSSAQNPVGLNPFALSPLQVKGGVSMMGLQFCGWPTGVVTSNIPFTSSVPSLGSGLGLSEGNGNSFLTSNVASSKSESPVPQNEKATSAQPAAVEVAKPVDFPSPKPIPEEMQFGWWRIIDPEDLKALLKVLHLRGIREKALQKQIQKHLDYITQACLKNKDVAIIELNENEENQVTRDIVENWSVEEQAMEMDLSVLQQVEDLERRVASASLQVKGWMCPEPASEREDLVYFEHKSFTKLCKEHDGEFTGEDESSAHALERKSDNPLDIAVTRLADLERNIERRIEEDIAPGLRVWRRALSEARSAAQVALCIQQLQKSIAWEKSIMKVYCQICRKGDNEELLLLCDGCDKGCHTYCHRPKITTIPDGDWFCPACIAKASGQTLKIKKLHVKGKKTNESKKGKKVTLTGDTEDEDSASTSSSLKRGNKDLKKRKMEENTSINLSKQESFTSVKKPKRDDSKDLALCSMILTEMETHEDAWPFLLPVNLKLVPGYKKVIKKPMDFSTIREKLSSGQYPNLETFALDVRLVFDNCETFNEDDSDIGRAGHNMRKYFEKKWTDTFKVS
BAZ2B PHD domain (human), sequence (Q9UIF8 whole entry, the tested form may be a part): as the sequence (Q9UIF8 whole entry) above
BAZ2B PHD-BRD WT, sequence (Q9UIF8 whole entry, the tested form may be a part): as the sequence (Q9UIF8 whole entry) above

For orientation: Kd means the constant that tells how readily two partners part at equilibrium. What is called stoichiometry N is a count of units in the complex or per binding partner. Turning to “BAZ2B PHD WT (from UniProt Q9UIF8 1-2168) (domain or fragment)”, the dissociation constant Kd was 23.9 µM with H3K4me3 (1-21); 10.2 µM in the test with H3K4me1 (1-21); 33.2 µM with H3T6C (1-21); 27 µM with H3K14ac T6C; 12.4 µM with H3K4me2 (1-21). In addition, the stoichiometry N in the test with H3K4me3 (1-21) is 0.73; in the test with H3K4me1 (1-21), 0.82; with H3T6C (1-21), 0.74; in the test with H3K14ac T6C, 4.86; with H3K4me2 (1-21) it was 0.71.

As to “histone H3(1–21aa) peptide, unmodified (from UniProt P68431 2-22)”, the results for the Kd with BAZ2B PHD domain (human) and with BAZ2B PHD–BRD (human) [1] were 5.78 µM and 54 µM, respectively.

Regarding “BAZ2B PHD-BRD WT (from UniProt Q9UIF8 1-2168) (domain or fragment)”, the Kd with H3K4me3 (1-21) was 130 µM; in the test with H3K4me1 (1-21), 88.4 µM; with H3K4me2K14ac, 18.9 µM; with H3K4me1K14ac it was 26.9 µM; in the test with H3K4me3K14ac, 6.99 µM; in the test with H3T6C (1-21), 148 µM. The equilibrium dissociation constant (Kd) in the test with H3K14ac T6C was 50.4 µM; with H3K4me2 (1-21), 123 µM. In addition, the stoichiometry N with H3K4me3 (1-21) worked out at 1.89; with H3K4me1 (1-21), 1.94; in the test with H3K4me2K14ac, 0.45; with H3K4me1K14ac, 0.54; with H3K4me3K14ac, 0.54; with H3T6C (1-21) it was 1.59. The values for the stoichiometry N with H3K14ac T6C and with H3K4me2 (1-21) were 2.92 and 1.76, respectively.

In the case of “histone H3(1–10aa) peptide (from UniProt P68431 2-11)”, the Kd with BAZ2B PHD domain (human) came out at 23.1 µM; with BAZ2B PHD–BRD (human) [1], 115 µM.

Turning to “histone H3(11–21aa) peptide (from UniProt P68431 12-22)”, the figures for the Kd with BAZ2B PHD domain (human) and with BAZ2B PHD–BRD (human) [1] were greater than 4000 µM and greater than 2000 µM, respectively.

For the substance “histone H3(1–21aa)K14ac peptide (from UniProt P68431 2-22)”, in the test with BAZ2B PHD–BRD (human) [2], the Kd estimated from BRD residues was greater than 8 µM and the Kd estimated from PHD residues is greater than 190 µM.

The values above are taken from paper PMC5663869.
